Test system: MS2 coat protein
Assay: apparent KD of MS2 coat protein; designed switch direction (-1 OFF switch, 1 ON switch): 1; higher = weaker reporter binding
Summary of the method: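 The reported apparent KD is a per-design median over clusters, from curve fits of normalised cluster fluorescence. Protein titrations used SNAP-549-labelled MS2 coat protein, doubled from 0.7 or 1.5 nM to 3 µM, in Tris-HCl pH 7.5 buffer with KCl, MgCl2, BSA, DTT, tRNA and Tween-20, with no input, 200 uM small-molecule ligand, or an oligonucleotide input. The RNA switches were transcribed on Illumina chips by stalled E. coli RNA polymerase.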

[1] = input ligand: microRNA oligo, concentration not stated
[2] = Eterna round: R95, input ligand: FMN 200 uM
[3] = Eterna round: R95, input ligand: microRNA oligo, concentration not stated
[4] = Eterna round: R95, input ligand: none

GUAGCAUACCGAGGAUAUUCAUAACAUGAGGAUCACCCAUGUAUUAGGCCACAUUAGUGGCCUUGGGAGAAGGCGGAAUGCUAC [Xeonanis - 20 Mod45] (Eterna round: R96, puzzle: Same State NG 2)
apparent KD of MS2 coat protein (input ligand: FMN 200 uM): 12.1 nM
apparent KD of MS2 coat protein [1]: 11.9 nM
apparent KD of MS2 coat protein (input ligand: none): 16.9 nM

UUGCUCGUGUGAGGAUAUGCCGCCGUUUCGGCUGCAGAAGGUACUCUGUUACAUGAGGAUCACCCAUGUCUCUGUUGUUUCGUG [salish99_SSNG1_r04_939] (Eterna round: R96, puzzle: Same State NG 1)
apparent KD of MS2 coat protein [1]: 34.7 nM

AACAAUCUAUCUGAGGAUAUCAUGAAAUAAACAUGAGGAUCACCCAUGUGCAGGAAAACUGCUUAUGAGAAGGCAGAUAGAUUGA [salish99_ss2_r3_047] (puzzle: Same State 2)
apparent KD of MS2 coat protein [2]: 10.3 nM
apparent KD of MS2 coat protein [3]: 12.6 nM
apparent KD of MS2 coat protein [4]: 12.2 nM

UCUUGGUUUUUGCUCGUUUUUUGUGUUGAACAUGAGGAUCACCCAUGUAUUGUACAGUCCAAUUUGAUAAUGGUCCG [JMF 54] (puzzle: Sensor for hsa-mir-208a)
apparent KD of MS2 coat protein [2]: 37.6 nM
apparent KD of MS2 coat protein [3]: 32.3 nM
apparent KD of MS2 coat protein [4]: 44 nM

AUUAAACAUGAGGAUCACCCAUGUCAACAAAGUCGAGGAUAUGGGCAAAUAAAAUAUGAACCAGAAGGCGAAUAAU [salish99_ss1_r3_064] (Eterna round: R96, puzzle: Same State 1)
apparent KD of MS2 coat protein (input ligand: FMN 200 uM): 32.9 nM
apparent KD of MS2 coat protein [1]: 208 nM
apparent KD of MS2 coat protein (input ligand: none): 263 nM

UGGAGACAUCAAGGAUAUGCUACCGUUUCGGUAGCAGAAGGUGAUCACAUGAGGAUCACCCAUGUAUGCAUGCGUGAGCGUGCU [JL SSNG1 3.53] (Eterna round: R96, puzzle: Same State NG 1)
apparent KD of MS2 coat protein (input ligand: FMN 200 uM): 779 nM
apparent KD of MS2 coat protein [1]: 32.7 nM
apparent KD of MS2 coat protein (input ligand: none): 35.4 nM

UGAAUAAUGUUAGGAUAUACAUGAGGAAUCCUCGUAGAAGGAACAUGACAUGAGGAUCACCCAUGUAGCGCUCCGUAGAGCGCA [Mat - Same State NG 1 - JL mod - D49] (Eterna round: R96, puzzle: Same State NG 1)
apparent KD of MS2 coat protein (input ligand: FMN 200 uM): 111 nM
apparent KD of MS2 coat protein [1]: 39.5 nM
apparent KD of MS2 coat protein (input ligand: none): 250 nM

CGGCGCUGUCGAGAGGAUAUGCGGUGAUGGACAUGAGGAUCACCCAUGUUAGCGAUAGCAUCACGGUAGAAGGCUCCACAGCCGU [Soteed Omei mod 13] (puzzle: Same State 2)
apparent KD of MS2 coat protein [3]: 23 nM

GUGGCACAUGAGGAUCACCCAUGUGGGUAGAACAUAGGAUAUCACCAACAAAAUACCCGGUGAGAAGGAUGAUGCC [Esanesdi] (puzzle: Same State 1)
apparent KD of MS2 coat protein [2]: 118 nM
apparent KD of MS2 coat protein [3]: 121 nM
apparent KD of MS2 coat protein [4]: 161 nM

GAGUGGAGGAGAGGAUAUACAAUGAUAAUCACAGUAGAAGGUUCUAACAUGAGGAUCACCCAUGUAGGACUAUUCCUGAGAGUU [Parity 50 - Jieux - Same State NG 1] (Eterna round: R96, puzzle: Same State NG 1)
apparent KD of MS2 coat protein (input ligand: FMN 200 uM): 10.8 nM
apparent KD of MS2 coat protein [1]: 9.56 nM
apparent KD of MS2 coat protein (input ligand: none): 12.8 nM

GGACGUCAUCUCACUGAUUAACAUGAGGAUCACCCAUGUUCACAGGAUAUGAGUCCGAUUAGGACUCAGAAGGGUGAGACGUCC [Fiskers NG3ss - 47] (Eterna round: R96, puzzle: Same State NG 3)
apparent KD of MS2 coat protein (input ligand: FMN 200 uM): 19.3 nM
apparent KD of MS2 coat protein [1]: 16.8 nM
apparent KD of MS2 coat protein (input ligand: none): 19.3 nM

GGCAUGCGGCGUACCGUAUGCUGGUAUGUACAUGAGGAUCACCCAUGUCAUGUACAGGCUUGUUGCUCGUCUUAUUG [JL-shm-2.41 JL mod] (puzzle: Sensor for hsa-mir-208a)
apparent KD of MS2 coat protein [2]: 137 nM
apparent KD of MS2 coat protein [3]: 34.3 nM
apparent KD of MS2 coat protein [4]: 158 nM

AGUCCAGCCUGAGCUGGACUGAAGCAUGUACAUGAGGAUCACCCAUGUUCAUGUACAGGCUUUUUGCUCGUCUUAUG [JL-shm-2.02 JL mod] (Eterna round: R96, puzzle: Sensor for hsa-mir-208a)
apparent KD of MS2 coat protein (input ligand: FMN 200 uM): 619 nM
apparent KD of MS2 coat protein [1]: 14.6 nM
apparent KD of MS2 coat protein (input ligand: none): 676 nM

GGAGAGAGAGCACAGGAUAUGCGAGGAGAGACAUGAGGAUCACCCAUGUAAGAGAGAGAGGAGAGGUAGAAGGGUGAGAGAGAGG [Altered State 2-21 - Jieux - Same State 2] (puzzle: Same State 2)
apparent KD of MS2 coat protein [2]: 150 nM
apparent KD of MS2 coat protein [3]: 62.7 nM
apparent KD of MS2 coat protein [4]: 92.3 nM

ACCCGCGGGCCACAUGAGGAUCACCCAUGUGACCGGUGAUCCAAGGAUAUACGUGUCAUUGACGCGUAGAAGGUGGCCAAAACA [Ersooned] (Eterna round: R96, puzzle: Same State NG 3)
apparent KD of MS2 coat protein (input ligand: FMN 200 uM): 49.2 nM
apparent KD of MS2 coat protein [1]: 22.7 nM
apparent KD of MS2 coat protein (input ligand: none): 28.8 nM

GCUACCAAAGAAGCCAACAUGAGGAUCACCCAUGUAUGUUGGUAGGAUAUCGUUUGCAAAGCAAACGAGAAGGGCUAAGGUAGC [Mat - Same State NG 3 - JL Mod - D77] (Eterna round: R96, puzzle: Same State NG 3)
apparent KD of MS2 coat protein (input ligand: FMN 200 uM): 138 nM
apparent KD of MS2 coat protein [1]: 99.2 nM
apparent KD of MS2 coat protein (input ligand: none): 107 nM

GAGAGAGGAAGCGAGGAUAUCGUGUUAGGUACAUGAGGAUCACCCAUGUUGUAGGUAGAGGUAGGCGAGAAGGCGCAGGAGAGGU [JR_SS2_Sub095] (puzzle: Same State 2)
apparent KD of MS2 coat protein [2]: 26.7 nM
apparent KD of MS2 coat protein [3]: 26.4 nM
apparent KD of MS2 coat protein [4]: 32.2 nM

GUCCAACAUGAGGAUCACCCAUGUCGGGCGUGCACAGGAUAUCGCGCCGGGAAAGCCCAGCGAGAAGGGUGAUCGA [Atveinla] (puzzle: Same State 1)
apparent KD of MS2 coat protein [2]: 197 nM
apparent KD of MS2 coat protein [3]: 57.8 nM
apparent KD of MS2 coat protein [4]: 50.9 nM

CUACGCGCCGCAGGAUAUGCCGACCCGUGUUGAGCAGAAGGGCGCAACAUGAGGAUCACCCAUGUUGAAAGAGCGCAAAAUUAA [Zaesre] (Eterna round: R96, puzzle: Same State NG 1)
apparent KD of MS2 coat protein (input ligand: FMN 200 uM): 11.1 nM
apparent KD of MS2 coat protein [1]: 12.5 nM
apparent KD of MS2 coat protein (input ligand: none): 16 nM

AUAAGUUUGAUGCUCGUCUCUCCGUACAAACAUGAGGAUCACCCAUGUGGUCGGGAAGUAGCCCGGCCAGUAUGACC [Rigebelain] (puzzle: Sensor for hsa-mir-208a)
apparent KD of MS2 coat protein [2]: 32.7 nM
apparent KD of MS2 coat protein [3]: 24.4 nM
apparent KD of MS2 coat protein [4]: 35.2 nM

GGAUGAUAGACAGGAUAUUGAUUGUAAUUAUGUCAAGAAGGGUCUUUGAUUUAAACGACCAGUUACAUGAGGAUCACCCAUGUU [JR_SSNG1_Sub029] (Eterna round: R96, puzzle: Same State NG 1)
apparent KD of MS2 coat protein [1]: 24.1 nM

GUCGGACCGGAAGGAUAUAACGACUGGUGUUUUCACAUGAGGAUCACCCAUGUAUCUCUACCGUGUUAGAAGGUUCGGAGGAAU [Eternabot solution 49] (Eterna round: R96, puzzle: Same State NG 2)
apparent KD of MS2 coat protein (input ligand: FMN 200 uM): 14.8 nM
apparent KD of MS2 coat protein [1]: 15.2 nM
apparent KD of MS2 coat protein (input ligand: none): 20.4 nM

AUUAAACAUGAGGAUCACCCAUGUCAACAAAGUCGAGGAUAUGGGCAAAUAAAAUAAGAACCAGAAGGCGUAUAAU [salish99_ss1_r3_077] (puzzle: Same State 1)
apparent KD of MS2 coat protein [2]: 75.9 nM
apparent KD of MS2 coat protein [3]: 363 nM
apparent KD of MS2 coat protein [4]: 636 nM

UGCUAGGAUAUCUUGAGGAUCACCCAGGAGAAGGAGUAAAGUUAGGAUAUCCUGAGGAUCACCCAGGAGAAGGAGCACAUACUC [pwkr ssNG3 DX 2xF5 +2xFMN.14] (Eterna round: R96, puzzle: Same State NG 3)
apparent KD of MS2 coat protein (input ligand: FMN 200 uM): 50.7 nM
apparent KD of MS2 coat protein [1]: 79.8 nM
apparent KD of MS2 coat protein (input ligand: none): 58.4 nM

UGUUGUAUUACAGGAUAUCUAUUAAUUUUAUUUAGAGAAGGGUAUUCACAUGAGGAUCACCCAUGUAUAUACGAGGAAGUUGUG [JMF's solution 13] (Eterna round: R96, puzzle: Same State NG 1)
apparent KD of MS2 coat protein [1]: 38.7 nM

GGCUAGCCUCAAGGAUAUACGCUCUCAACAAAGAACCGACUACAUGAGGAUCACCCAUGUACCAUGUAGAAGGUGAGGUUAGCC [Eternabot solution 4] (Eterna round: R96, puzzle: Same State NG 2)
apparent KD of MS2 coat protein [1]: 397 nM

AGUCCAGCCUGAGCUGGACUGAAGCAUGUACAUGAGGAUCACCCAUGUUCAUGUGCAGGCUUUUUGCUCGUCUUAUG [JL-shm-2.01 JL mod] (puzzle: Sensor for hsa-mir-208a)
apparent KD of MS2 coat protein [2]: 84.7 nM
apparent KD of MS2 coat protein [3]: 13.5 nM
apparent KD of MS2 coat protein [4]: 108 nM

CUCAACAACACAGGAUAUCCAGGUAAAAGACCUGGAGAAGGGUGACCAACAUGAGGAUCACCCAUGUGACAGCCAGGCUGUCUG [Isbitiqu] (Eterna round: R96, puzzle: Same State NG 1)
apparent KD of MS2 coat protein (input ligand: FMN 200 uM): 87.8 nM
apparent KD of MS2 coat protein [1]: 4.41 nM
apparent KD of MS2 coat protein (input ligand: none): 371 nM

AGAUCAUGACGAGGAUAUGGAACAUGAGGAUCACCCAUGUAUGUUCCAUAACGCGAACGACGAAUCCAGAAGGCGUCGUGGUCA [JL SSNG2 1.09] (Eterna round: R96, puzzle: Same State NG 2)
apparent KD of MS2 coat protein (input ligand: FMN 200 uM): 7.15 nM
apparent KD of MS2 coat protein [1]: 18.6 nM
apparent KD of MS2 coat protein (input ligand: none): 28.3 nM

AUACAUAUCAGAGGAUAUCACGUCGUUUAGACGUGAGAAGGCUGAUCACACAUGAAUAUUAAUACAUGAGGAUCACCCAUGUAU [SSNG1/14-A3] (Eterna round: R96, puzzle: Same State NG 1)
apparent KD of MS2 coat protein (input ligand: FMN 200 uM): 13.7 nM
apparent KD of MS2 coat protein [1]: 13.4 nM
apparent KD of MS2 coat protein (input ligand: none): 20.9 nM

GCUAGGAAAUAAGCCAACAUGAGGAUCACCCAUGUAUGUUGGUAGGAUAUCGUUUGCAAAGCAAACGAGAAGGGCUAACCUAGC [Mat - Same State NG 3 - JL Mod - D70] (Eterna round: R96, puzzle: Same State NG 3)
apparent KD of MS2 coat protein (input ligand: FMN 200 uM): 72.2 nM
apparent KD of MS2 coat protein [1]: 70.6 nM
apparent KD of MS2 coat protein (input ligand: none): 85.9 nM

From the supplement of paper PMC9170038
